From patent publication US20260116937A1

Legend:
C3b (human) [1] = target: C3b (human) (UniProt P01024); assay: ELISA
C3b (human) [2] = target: C3b (human) (UniProt P01024); assay: ELISA; culture supernatant

Chain of C3b (human) (P01024 749-1663, chain 1 of 2): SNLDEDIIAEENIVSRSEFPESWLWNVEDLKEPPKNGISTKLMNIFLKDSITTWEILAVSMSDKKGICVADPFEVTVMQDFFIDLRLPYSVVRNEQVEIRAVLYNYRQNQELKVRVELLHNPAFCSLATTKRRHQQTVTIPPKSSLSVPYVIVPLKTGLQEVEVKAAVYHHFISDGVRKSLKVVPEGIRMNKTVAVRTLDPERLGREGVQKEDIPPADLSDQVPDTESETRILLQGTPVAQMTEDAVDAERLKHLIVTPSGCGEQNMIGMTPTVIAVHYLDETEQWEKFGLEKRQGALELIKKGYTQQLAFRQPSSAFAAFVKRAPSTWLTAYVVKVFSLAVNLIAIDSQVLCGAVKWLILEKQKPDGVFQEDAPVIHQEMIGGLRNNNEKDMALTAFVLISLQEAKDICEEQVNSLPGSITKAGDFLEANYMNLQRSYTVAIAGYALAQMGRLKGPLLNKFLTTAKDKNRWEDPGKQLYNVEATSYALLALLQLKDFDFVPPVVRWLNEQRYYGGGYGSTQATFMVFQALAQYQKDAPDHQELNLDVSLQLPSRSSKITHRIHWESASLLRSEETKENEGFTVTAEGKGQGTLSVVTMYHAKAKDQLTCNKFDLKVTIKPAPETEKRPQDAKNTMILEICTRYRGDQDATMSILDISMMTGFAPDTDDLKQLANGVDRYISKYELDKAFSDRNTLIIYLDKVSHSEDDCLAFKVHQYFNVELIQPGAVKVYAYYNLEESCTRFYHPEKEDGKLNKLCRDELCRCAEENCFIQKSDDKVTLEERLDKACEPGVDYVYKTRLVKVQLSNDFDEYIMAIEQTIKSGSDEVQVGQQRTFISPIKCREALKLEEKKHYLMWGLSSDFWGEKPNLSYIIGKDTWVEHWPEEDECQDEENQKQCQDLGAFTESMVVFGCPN
Chain of C3b (human) (P01024 23-667, chain 2 of 2): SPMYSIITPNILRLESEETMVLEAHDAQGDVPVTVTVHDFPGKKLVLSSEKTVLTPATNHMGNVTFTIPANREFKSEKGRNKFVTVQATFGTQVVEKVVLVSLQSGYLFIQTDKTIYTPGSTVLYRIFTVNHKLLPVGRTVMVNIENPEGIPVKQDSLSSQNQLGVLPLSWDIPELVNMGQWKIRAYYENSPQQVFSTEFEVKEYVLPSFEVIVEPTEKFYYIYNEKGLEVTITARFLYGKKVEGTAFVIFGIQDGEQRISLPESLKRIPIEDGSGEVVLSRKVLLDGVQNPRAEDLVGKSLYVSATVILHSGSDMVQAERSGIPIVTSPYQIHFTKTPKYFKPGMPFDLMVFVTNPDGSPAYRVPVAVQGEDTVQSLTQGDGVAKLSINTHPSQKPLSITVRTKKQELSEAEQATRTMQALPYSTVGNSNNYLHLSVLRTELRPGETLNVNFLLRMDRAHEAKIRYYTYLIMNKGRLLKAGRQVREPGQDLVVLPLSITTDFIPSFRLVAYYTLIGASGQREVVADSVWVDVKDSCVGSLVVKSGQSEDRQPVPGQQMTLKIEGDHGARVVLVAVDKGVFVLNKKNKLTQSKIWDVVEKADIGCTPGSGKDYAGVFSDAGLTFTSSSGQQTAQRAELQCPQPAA

- EC50 (C3b (human) [1]): 7.1 nM
- EC50 (C3b (human) [2]): 6.9 nM
Substance: Factor H-like protein 1 (FHL-1) (from UniProt P08603 19-445)
